From patent US7063946B2, “Methods, reagents, kits and apparatus for protein function analysis” (Meso Scale Technologies, LLC., priority 2001, dated 2006) come the findings set out here.

Test [1] relates to pEY. Kind of test: In vitro kinase library screen: activity towards pEY. The format is biochemical. The following applies: 5 ul of expressed protein. As to the method:
Proteins were produced in an in vitro transcription and translation reaction. […] The unbound components of the reaction containing endogenous kinases were removed by three washes with TT-buffer (25 mM Tris-HCl buffer pH 7.4 and 0.004% Triton), two five minutes washings with high-salt wash buffer (25 mM Tris-HCl buffer pH 7.4, 0.004% Triton, 1M NaCl and 5 mM DTT) and 3 more washes with TT-buffer. To these immobilized and purified proteins a tyrosine kinase substrate, 5 nM pEY (poly Glu-Tyr, Sigma, MO), was added in a 50 μl reaction solution containing 5 mM MgCl2, 5 mM MnCl2, 100 μM ATP, 25 mM Tris-HCl buffer pH 7.4, 0.05 mM Na3VO4, 0.004% TritonX-100, 2 mM DTT and EDTA-free protease inhibitor (Roche Molecular Biochemicals). This mixture was incubated with shaking at room temperature overnight to allow phosphorylation of the pEY substrate by the immobilized kinases. Following this incubation, 45 μl of this mixture was transferred to a streptavidin or avidin-coated NPT IPR plate coated with biotinylated anti-phosphotyrosine antibody (PY20, Zymed labs, CA) followed by incubation for 30 minutes at room temperature to allow the binding of the phosphorylated pEY substrate to the PY20 coated NPT plate. Following this binding step, 50 ng Sulfo-TAG labeled anti-phosphotyrosine in buffer containing 25 mM Tris-HCl buffer pH 7.4, 5 mM MgCl2, 0.05 mM Na3VO4, 0.004% TritonX-100, 2 mM DTT and 0.05% IgG was added followed by incubation at room temperature for 30 mm. The unbound reagents were removed by one time washing with water, and the TAG label was detected in presence of 150 μl IPR assay buffer (0.4 mM Gly-Gly buffer, pH 7.8, 1 mM EDTA, 0.1 M TPA). The ECL signals were measured using an imaging plate reader.
(§1) Proteins were produced in an in vitro transcription and translation reaction as described in the Materials and Methods. […] The reaction was stopped by mixing with BB2 buffer. Biotinylated proteins from 50 μl of the mixture (representing 0.5 μl to 5 μl of TnT reaction) were immobilized onto streptavidin or avidin coated NPT-IPR plates by shaking at room temperature for 45 min. The activity of the immobilized protein towards pEY or autophosphorylation was further assayed by the methods described in examples 7 and 8.

Test [2] relates to autophosphorylation (phosphotyrosine). Kind of test: In vitro kinase library screen: autophosphorylation. The format is biochemical. As for the experimental part:
Proteins were produced from DNA plasmids of Mock Luciferase, Promega, tyrosine kinase clone Spleen Tyrosine kinase (SYK, IMAGE ID# 3870426) and Eph receptor-A7 (EphA7, IMAGE ID# 3991628) (Incyte Genomics, CA) and immobilized on streptavidin or avidin coated NPT-IPR plates as described in the Example 7. To promote autophosphorylation in these immobilized and purified proteins, Mn++ ions were added in a 50 μl reaction containing 5 mM MgCl2, 5 mM MnCl2, 100 μM ATP, 25 mM Tris-HCl buffer pH 7.4, 0.05 mM Na3VO4, 0.004% TritonX-100, 2 mM DTT and EDTA-free protease inhibitor (Roche Molecular Biochemicals). This mixture was incubated with shaking at room temperature overnight to allow autophosphorylation. Following this incubation, wells were washed 2 times with TT-buffer and 2 times with water. Following this step, 50 ng Sulfo-TAG labeled anti-phosphotyrosine in buffer containing 25 mM Tris-HCl buffer pH 7.4, 5 mM MgCl2, 0.05 mM Na3VO4, 0.004% TritonX-100, 2 mM DTT and 0.05% IgG in a final volume of 50 μl was added followed by incubation at room temperature for 45 min. The unbound reagents were removed by one time washing with water, and the TAG label was detected in presence of 150 μl IPR assay buffer (0.4 mM Gly—Gly buffer, pH 7.8, 1 mM EDTA, 0.1 M TPA). The ECL signals were measured using an imaging plate reader.
as §1

Test [3] concerns pooled phosphopeptide:BSA conjugates (Pools A-D). Kind of test: Coded multiplex phosphopeptide binding assay with pooled peptide:BSA conjugates on 4 spots. The source says: To prepare the Multi-Spot IPR plates, in this example we made use of pools of the peptide:BSA conjugates to coat each of 4 spots per well in a 96 well plate. To achieve this we made the following pools; • Pool A; EGFR-pTyr1148, IkBa-24ppC, Myc-p58Tp62S. • Pool B; EGFR-pTyr992, EGFR-pTyr1148, Smad3C. • Pool C; EGFR-pTyr1068, IkBa-24ppC, Smad3C. • Pool D; EGFR-pTyr992, EGFR-pTyr1068, Myc-p58Tp62S.
This combination of the various peptides results in any single peptide being present in two pools. Each of these four pools is then spotted on to a unique spot in a 4 spot array. In this way any single binding protein with specificity for only one of the peptides would bind to two spots; the identity of the two spots would allow the identification of the peptide involved in the binding reaction.
Typically approximately 120 fmole of peptide:BSA conjugate in 0.25 μl was deposited on each spot of a 4-spot multi-array IPR plates using a BioDot Dispenser (Bio-Dot Inc., vIrvine Calif.). At this stage, the plates were dried then used or stored under desiccated condition. A few hours prior to usage, the plates were rehydrated and blocked with 3% BSA, in PBS.
To test the system the following EST clones IMAGE # 3491843, 4237375, 4398016, 4419252, 3872466, 3907115 were obtained. These clones express the following genes βTRCP1, βTRCP2, Grb2, PLCγ, CBP and Shc1, respectively. […] These DNAs were used to produce proteins as described in the Materials and Methods. Proteins were transferred to a well of the 4 spot peptide-coated and BSA blocked ECL plates. The binding assay (using Sulfo-TAG labeled streptavidin as a detection agent) was carried our according to the procedures described in Example 11.

B1: 3873932: IMAGE clone protein: MATK, megakaryocyte-associated tyrosine kinase (protein, UniProt P42679 1-507, looked up)
Megakaryocyte-associated …: MAGRGSLVSWRAFHGCDSAEELPRVSPRFLRAWHPPPVSARMPTRRWAPGTQCITKCEHTRPKPGELAFRKGDVVTILEACENKSWYRVKHHTSGQEGLLAAGALREREALSADPKLSLMPWFHGKISGQEAVQQLQPPEDGLFLVRESARHPGDYVLCVSFGRDVIHYRVLHRDGHLTIDEAVFFCNLMDMVEHYSKDKGAICTKLVRPKRKHGTKSAEEELARAGWLLNLQHLTLGAQIGEGEFGAVLQGEYLGQKVAVKNIKCDVTAQAFLDETAVMTKMQHENLVRLLGVILHQGLYIVMEHVSKGNLVNFLRTRGRALVNTAQLLQFSLHVAEGMEYLESKKLVHRDLAARNILVSEDLVAKVSDFGLAKAERKGLDSSRLPVKWTAPEALKHGKFTSKSDVWSFGVLLWEVFSYGRAPYPKMSLKEVSEAVEKGYRMEPPEGCPGPVHVLMSSCWEAEPARRPPFRKLAEKLARELRSAGAPASVSGQDADGSTSPRSQEP
For the molecule B1, the HTS signal in test [1] is reported as 47,477. Also, the ECL signal in test [2] is on record as 27,372.

B2: 3673003: IMAGE clone protein: Ephb3, Eph receptor B3 (protein, UniProt P54754 30-993, looked up)
Ephrin type-B receptor 3: LEETLMDTKWVTSELAWTSHPESGWEEVSGYDEAMNPIRTYQVCNVRESSQNNWLRTGFIWRREVQRVYVELKFTVRDCNSIPNIPGSCKETFNLFYYEADSDVASASSPFWMENPYVKVDTIAPDESFSRLDAGRVNTKVRSFGPLSKAGFYLAFQDQGACMSLISVRAFYKKCASTTAGFALFPETLTGAEPTSLVIAPGTCIANAVEVSVPLKLYCNGDGEWMVPVGACTCATGHEPAAKESQCRACPPGSYKAKQGEGPCLPCPPNSRTTSPAASICTCHNNFYRADSDSADSACTTVPSPPRGVISNVNETSLILEWSEPRDLGGRDDLLYNVICKKCRGSSGAGGPATCSRCDDNVEFVPRQLGLTERRVHISHLLAHTRYTFEVQAVNGVSGKSPLPPRYAAVNITTNQAAPSEVPTLHLHSSSGSSLTLSWAPPERPNGVILDYEMKYFEKSKGIASTVTSQKNSVQLDGLQPDARYVVQVRARTVAGYGQYSHPAEFETTSERGSGAQQLQEQLPLIVGSTVAGFVFMVVVVVIALVCLRKQRHGPDAEYTEKLQQYIAPGMKVYIDPFTYEDPNEAVREFAKEIDVSCVKIEEVIGAGEFGEVCRGRLKLPGRREVFVAIKTLKVGYTERQRRDFLSEASIMGQFDHPNIIRLEGVVTKSRPVMILTEFMENCALDSFLRLNDGQFTVIQLVGMLRGIAAGMKYLSEMNYVHRDLAARNILVNSNLVCKVSDFGLSRFLEDDPSDPTYTSSLGGKIPIRWTAPEAIAYRKFTSASDVWSYGIVMWEVMSYGERPYWDMSNQDVINAVEQDYRLPPPMDCPTALHQLMLDCWVRDRNLRPKFSQIVNTLDKLIRNAASLKVTASAPSGMSQPLLDRTVPDYTTFTTVGDWLDAIKMGRYKESFVGAGFASFDLVAQMTAEDLLRIGVTLAGHQKKILCSIQDMRLQMNQTLPVQV
B2: the HTS signal in test [1] is 1,174. In addition, the ECL signal in test [2] was 10,540.

B3: 3907115: IMAGE clone protein: Shc1 (protein)
chain: MNKLSGGGGRRTRVEGGQLGGEEWTRHGSFVNKPTRGWLHPNDKVMGPGVSYLVRYMGCVEVLQSMRALDFNTRTQVTREAISLVCEAVPGAKGATRRRKPCSRPLSSILGRSNLKFAGMPITLTVSTSSLNLMAADCKQIIANHHMQSISFASGGDPDTAEYVAYVAKDPVNQRACHILECPEGLAQDVISTIGQAFELRFKQYLRNPPKLVTPHDRMAGFDGSAWDEEEEEPPDHQYYNDFPGKEPPLGGVVDMRLREGAAPGAARPTAPNAQTPSHLGATLPVGQPVGGDPEVRKQMPPPPPCPGRELFDDPSYVNVQNLDKARQAVGGAGPPNPAINGSAPRDLFDMKPFEDALRVPPPPQSVSMAEQLRGEPWFHGKLSRREAEALLQLNGDFLVRESTTTPGQYVLTGLQSGQPKHLLLVDPEGVVRTKDHRFESVSHLISYHMDNHLPIISAGSELCLQQPVERKL
On to B3, for which, in test [3], the “Code (pattern of positive spots)” value was “A, B” and the “Peptide determined from code” value is listed as “EGFR-pTyr1148”. Moreover, the “ECL signal, spot A” value in test [3] (Pool A, EGFR-pTyr1148, IkBa-24ppC, Myc-p58Tp62S) amounted to 260. Also, the “ECL signal, spot B” value in test [3] (Pool B, EGFR-pTyr992, EGFR-pTyr1148, Smad3C) is on record as 318. In test [3] (Pool C, EGFR-pTyr1068, IkBa-24ppC, Smad3C), the “ECL signal, spot C” value is reported as 24. Further, in test [3] (Pool D, EGFR-pTyr992, EGFR-pTyr1068, Myc-p58Tp62S), the “ECL signal, spot D” value was 26.

B4: 3978518: IMAGE clone protein: Hck, hemopoietic cell kinase (protein, UniProt P08103 2-524, looked up)
Tyrosine-protein kinase HCK: GGRSSCEDPGCPRSEGRAPRMGCVKSRFLRDGSKASKTEPSANQKGPVYVPDPTSSSKLGPNNSNSMPPGFVEGSEDTIVVALYDYEAIHREDLSFQKGDQMVVLEEAGEWWKARSLATKKEGYIPSNYVARVNSLETEEWFFKGISRKDAERHLLAPGNMLGSFMIRDSETTKGSYSLSVRDFDPQHGDTVKHYKIRTLDSGGFYISPRSTFSSLQELVLHYKKGKDGLCQKLSVPCVSPKPQKPWEKDAWEIPRESLQMEKKLGAGQFGEVWMATYNKHTKVAVKTMKPGSMSVEAFLAEANLMKSLQHDKLVKLHAVVSQEPIFIVTEFMAKGSLLDFLKSEEGSKQPLPKLIDFSAQISEGMAFIEQRNYIHRDLRAANILVSASLVCKIADFGLARIIEDNEYTAREGAKFPIKWTAPEAINFGSFTIKSDVWSFGILLMEIVTYGRIPYPGMSNPEVIRALEHGYRMPRPDNCPEELYNIMIRCWKNRPEERPTFEYIQSVLDDFYTATESQYQQQP
For the molecule B4, the HTS signal in test [1] was 184,534. Besides, the ECL signal in test [2] is given as 301,418.
